We go through 16 sequences from a protein production outcome set (Wang et al. 2014).
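Also: failed if final PepcDB status was selected cloned or expressed and not failed if soluble or beyond.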

The nature of the series: label from the status in PepcDB records.
Take “MENSFLSSKLVFLLAIALVLFLNTELSFLTAEGASDSNSKVYIVYLGQREHDDPELLTASHHQMLESLLQSKEDAHNSMIYSYQHGFSGFAALLTSSQAKKISEHPEVIHVIPNRILKLKTTRIWDHLGLSPIPTSFSSSSSAKAKGLLHNTSMGSEAIIGVVDSGIWPESKVFNDQGLGPIPKRWRGKCRSGEKFNATMHCNKKLIGAKYYQSGLLAMNGGKFNRIIIRDFKSNRDATGHGTHTATIAGGSFVPNASFYGLARGTVRGGAPRARIASYKACWNVVGWGGICSSADMWKAYDDAIHDQVDVLSVSIGASIPEDSERVDFIAAFHAVAKGITVVAAAGNDGSGAQTICNVAPWLLTVAATTLDRSFPTKITLGNNQTFFGKTILEFDSTHPSSIAGRGVVAVILAKKPDDRPAPDNSYIFTDYEIGTHILQYIRTTRSPTVRISAATTLTGQPATPKVAAFSSRGPNSVSPAILKPDIAAPGVSILAAVSPLDPGAFNGFKLHSGTSMSTPVVSGIIVLLKSLHPKWSPAAMRSALVTTAWRTSPSGEPIFAQGSNKKLADPFDYGGGLVNPEKAAKPGLVYDMGIKDYINYMCSAGYNDSSISRVLGKKTKCPIPKPSMLDINLPSITIPNLEKEVTLTRTVTNVGPIKSVYRAVIESPLGITLTVNPTILVFKSAAKRVLTFSVKAKTSHKVNSGYFFGSLTWTDGVHDVTIPVSVKTTISM”: the protein production result was “failed”.
On to “MSKLIFSVLISVYYNESISYFKKSLDSILYQTLLPAEVVLVKDGILTDDLNCIVKEYSQKYPILKVISLPVNQGLGKALNEGLKHCSYDLVARMDTDDIAKPDRFEKQIRVFQEHPELDVVGAWIDEFEETTSNIISTRKLPEVHDDICQFAKKRNPENHPVIMFRKQAVLAAGGYQHFPLFEDYYLWIRMLQNGAKFYNIQESLLYFRFSPAMFKRRGGLKYVTTELRFQNQLRNLGFITSSEYLYNVFIRVITRMMPNTLRAILYKKALRK”, for which the protein production entry was “failed”.
For “MSKGKKIFAIIFGIILVLFLAVVGMGAKLYWDVSKSMDKTYETVERSKKSQVNLNNKEPFSVLLLGIDTGDDGRVEQGRSDTTIVATVNPRDKQTTLVSLARDTYVDIPGQGKQDKLNHAYAFGGASLAMDTVENYLNIPINHYVSINMAGLKELVNAVGGIEVNNNLTFSQDGYDFTIGKISLDGEQALSYSRMRYEDPNGDYGRQERQRKVIEGIVQKVLSLNSVSNYQEILTAVSDNMKTDLSFDDMKKIALDYRSAFGKVKQDQLQGTGFMQDGVSYQRVDEQELTRVQQELKNQLNTK”, the protein production result is given as “failed”.
“MSASVKESLQLQLLEMEMLFSMFPNQGEVKLEDVNALTNIKRYLEGTREALPPKIEFVITLQIEEPKVKIDLQVTMPHSYPYLALQLFGRSSELDRHQQLLLNKGLTSYIGTFDPGELCVCAAIQWLQDNSASYFLNRKLV”: the protein production entry was “not failed”.
As to “MSSVSLQDFDAERIGLFHEDIKRKFDELKSKNLKLDLTRGKPSSEQLDFADELLALPGKGDFKAADGTDVRNYGGLDGIVDIRQIWADLLGVPVEQVLAGDASSLNIMFDVISWSYIFGNNDSVQPWSKEETVKWICPVPGYDRHFSITERFGFEMISVPMNEDGPDMDAVEELVKNPQVKGMWVVPVFSNPTGFTVTEDVAKRLSAMETAAPDFRVVWDNAYAVHTLTDEFPEVIDIVGLGEAAGNPNRFWAFTSTSKITLAGAGVSFFLTSAENRKWYTGHAGIRGIGPNKVNQLAHARYFGDAEGVRAVMRKHAASLAPKFNKVLEILDSRLAEYGVAQWTVPAGGYFISLDVVPGTASRVAELAKEAGIALTGAGSSYPLRQDPENKNLRLAPSLPPVEELEVAMDGVATCVLLAAAEHYAN”, the protein production result is reported as “not failed”.
With “MSLRSHFATQKDQWQTYTKEKKIKIGFDATFVPMGYEEKDGSYIGFDIDLANAVFKLYGIDVEWQAIDWDMKETELKNGTIDLIWNGYSVTDERKQSADFTEPYMVNEQVLVTKKSSGIDSVAGMAGKTLGAQAGSSGYDAFNASPKILKDVVANQKVVQYSTFTQALIDLNSGRIDGLLIDRVYANYYLEKSGVLDQYNVMPAGYEGESFAVGARKVDKTLIKKINQGFETLYKNGEFQKISNKWFGEDVATDQVKGKREGHHHHHH”, the protein production entry is “not failed”.
To “MKAPLVSIIIPVWNLWELTCACLDSIRAHTPGNAVEVIVVDNGSDDTTATALAPTGEGLFGARFRRIRLETNRGFAVACNLGAAKAQGTYLLLLNNDTVLSPGWLPPLLREFDDEPRTGAAGPLLVYPDSGRVQHCGIAFAPTLQTEHLYANFPATHPAVRARRTLQAITGAAMLLPTALFRQCGGFHEGYKNGCEDLELCCRIREQGLRLAVVPESLVAHHESRTPGRKEHDAANATLLNRRCSGCFGPDLHRHALRDGFAIALTPWLDTYLTLPPGREAALTREHITDFDPGRCWETLQGEPLWHGGYEMLCSILDEAGRHAESAGVRLLQAGFFPTLPGFRQLARSAALSGNDELARQAAEKMQHIGGILEDPEPLVTRARGLVRWARRAGEPAVEALYTGWLTDIGLSADDLEHHHHHH” belongs “not failed”.
Regarding “MGGDSVAIFTADMSVSGELRNDIELHLRRGIESDALRLVYLPEVDLRTGDIVGTEALVRWQHPTRGLLAPGCFIPVAESINLAGELDRWVLRRACNEFSEWQSAGLGHDALLRINVSAGQLVTGGFVDFVADTIGQHGLDASSVCLEITENVVVQDLHTARATLARLKEVGVHIAIDDFGTGYSAISLLQTLPIDTLKIDKTFVRQLGTNTSDLVIVRGIMTLAEGFQLDVVAEGVETEAAARILLDQRCYRAQGFLFSRPVPGEAMRHMLSARRLPPTCILEHHHHHH”, the protein production result is “failed”.
For the sequence “MLTQANIPSWYEGLNKSGLTPPGPVFSIVWSILYALLAIVGWVLWCSRNESEMRSVFYLYSVQMLMNWAWTPLFFVLHWTGLSFLWILVMAGLTGLLMFSQTNKKKSLAILLLPYLIWLLFAAYLNGVIWLLN”, the protein production result is listed as “failed”.
Take “MRFSSIFKIIILNIFISKMAHAAVCEERYPADSEECQYVQELEQKAEQGDESAQFALGSWYAEGRYVKPDYKLAIKWLEKAGKQGSDFSYFILGYHYNYGENFPLSRQKALEWYRKAAELGDSSTQEILGDAYMYGDGFPQNTQLALEWYRKAASPTNDAGVVRGQGSASSAQFKLGVMYAHGQGVPQDYQQTAILMRKAAENMYYPAQLYLGVAYFYGEGVPQDYRQAVYWLNEGIPGSYTPGHIPLSALYDKAHPADRVHSQTWYRKTAQRVMAKVQYNFGVWYYNGYHLLKDHNLALEWYRRAAAQGLAEAQDAIGVMFMQGEGVSQDYQQALAWYRKAARQGLPAAQTHLGIMSAFGRDVAQSDRQAIAWYRKAAKQDFAKAQYQLGVAYSTGRGVPENSRNALKWYLKAAEQGFTPAQSALGEIYAHGRQGVPKDNKQAYIWYYMASMYTEKSKDDCSALIAERNRLKGTLTPDQLSETYAAFNLIWRKIDQSKEAKKIARKKY”: the protein production result was “failed”.
For the sequence “MKDLYQKFIYLIPSIIIFLITLSVTLKYSWPIGWDIFYHIHLSKVYMANGLTFFDPIYNAPGTIINYPPVFHLVILVLGYVLRMDLFDVARLMQPFLAALVALSVTVVASRLYEDKYVGIFAGLILFSGSIAMRLGSSLPENMALIFLPLSIFFFYEFFKDDKIIASFISGCLTGLVALIHPAATFCLVFAITFITAGLVITEFYFERDTGVIKRALKGYAILIGTAGLIASVWWLPAFYFKSLGHGGVATSLSVSRSLSILKYPDALGYFVLVLAVAGIIPAIRRFELRDRLILLWIISMFILSKSYYFGINVITYRVLIYIMIPLTILASSGLISVVEAIKNKNKDIARILLIALFIFAVFQAFNNLSSSKVADYGAMTAYGRINIAPPTDSEFELAKWFNSQNEDGKISLSNYFTGGFVMAYTNRPVDSLLYEKSEIPSRDELTEREISYLVFDKRLKASGDFKFNASSSFLFYNPNRINISDLEYPYLQKIYENQDFVVYRVL”, the protein production result is on record as “failed”.
With “MFLFLTCKIGNRMVKLRTFINISEDLFVIRNLIGAILQGIGLAYLVPVLLAWFYPEEIPLVIYFAIPGFSCIILGWVLSKHMEKIEDVNLRQAMMASAFIWLFASLVSVIPFMGIAKMRFVDSYFETMSAWTGTGLTMMSNLESYPKILLFWRAWMQWLGGIGIVLVALTVLIRPGVAAARLYKAEARSERILPNFVNTAKIIVQIYAVLTLLGIYLYYSNGMSLFDATIHSMTGLGTGGMSSHDLSIGYFNSLAIETVTVFLMIMGATNFTVHYRMFKNRSLKEFFRDIQVRYMLYFITLIVALMTYSLVFFGHLTPIRALRESIFHAVSAITCTGFGISNLAEYPEIDKILLAILMVIGGSAGSTSGGIKLIRIVLMYQSLKWTIEQAILPKGAVIRKRVNGYEFTEEEIQEVLGFTMTYIAFLLLGTLYIMLRLGVRFADALFEVASAIGNVGLSVGITSPLLPLDIKILLTILMWVGRLEIFSTIVFIVGLAMIFSRRSKE”, the protein production result is reported as “failed”.
For the sequence “MLIILFLIQMILIVKALGLKGLFIFLALIFGLFVLCKVSLKVKLPRNKYSKVTWEDMPWLYDGVARMANKARISTPNIYIEDNPIPTAYSFQNSIVLSAGLLEILNEEEVLAVAAHEIGHIKNGDTVLFPLLRYGKYIMGIITAIIVIFATGFITKVVSFLVFVIYAFSLLKFLRKREFLADRVALQIAEVPYALKSALEELKFYEEALKTKEMPLPTIQPSIRREEKREPQIFPLPSTHPSYDERIARIIAIVEMYRRLEFLN”, the protein production entry is recorded as “failed”.
To “MTYDLTVIIPVYNTEKYLRRCLESIVNQDDIEQCSIKVICINDGSTDESRKIIEEFVEKYSYIEIFNKENGGLADVRNTGLQFINDSLYTVSLDSDDFWDKSFLTEFNKYKSSNYDLIFFDINLVDCDGNPVKELIVNPKFDKYNKKKDFMVVKHAAWSKICRTNLYDNINFPKGKLYEDLAVMPYLTSRAERIHYIQKPLINYVINTPGSIMNSSKSNIFDIYDSLIHLFNLFGNHFEKYRNELQYLAIEHLCVGHTYRLLNYPEATKQDFKDIVIFMEKYFGKHWDKNKYVKRGVQKVNINSSLSYVVPVFLKFLKYGGIIKLYDIKRVLLSKK” belongs “failed”; to “MARPKSKTKKILFAVEIIVLLLFIGGLYVYGQLNSKLDKINQPVLDDSKIKVNQEVQDSIDSQESTLTGYTTYALFGIDHRDKNTALGGENSDTIIIASVNNDTKDVKLVSVYRDTLLNLGNDTYSKANAAYAYGEAEQAITMLNTNLDLNISEYATVNFNALTTIIDDLGGLDMDMSYAEIVHMNNYCVETSEETGKDYTPIELPDRPDDIEAVQYHYHLNGVQATSYCRIRYTASLDMGRTERQRRVIQMIVSKAKSAGLGKIFKIMDDVFPMVTTSMTKDEILQLLPTLIGYSVDDTTGFPTSYKFSNVKGSIIVPTTLETNVIELHKFLYGDEAYTPSATVKANSEKILEIVGGESSLDDKQATVEENTTNDTVIFEKNGSGWSDTSSDYGSDSDSSGGGDYSGDETDNSGGSSSGGGDYSNDGSDNSGGDSSGGEDYEGPTTPEPDYGGDDNGGGDTGGDESGGGDTGGDESGGGDIVDEGSGDDSGAAAEATGTPDAA”, “failed”.
As for “MELWTHPTPAAPRLATSTRTRWRRTSRCSQPWATTPGTNSSDASRTPTTASASATSKPQSASARARSVRRSPDCTPRAWSRGARKDRGATTNRPRRPKFCSKRSTTCEATMSNDNETMVADRDPEETREMVRERYAGIATSGQDCCGDVGLDVSGDGGCCSDETEASGSERLGYDADDVASVADGADLGLGCGNPKAFAAMAPGETVLDLGSGAGFDCFLAAQEVGPDGHVIGVDMTPEMISKARENVAKNDAENVEFRLGEIGHLPVADESVNVVISNCVVNLAPEKQRVFDDTYRVLRPGGRVAISDVVQTAPFPDDVQMDPDSLTGCVAGASTVDDLKAMLDEAGFEAVEIAPKDESTEFISDWDADRDLGEYLVSATIEARKPARDD”, the protein production entry is “failed”.
